Data as given in patent US20030235860A1, “Interactions between AR, ER, TR2, and TR4” (priority 1999, published 2003).
No end group written: not given here.

T1: ER (Homo sapiens, UniProt P03372, G400V)
T1 construct: Full-length ER and TR2 in eukaryotic expression vectors (pSG5-ER and pCMV-TR2) were co-transfected; expressed in transfected cells; host or cells: PC-3 and H1299 (pSG5-ER transfected)
T1 sequence (P03372 1-595 G400V): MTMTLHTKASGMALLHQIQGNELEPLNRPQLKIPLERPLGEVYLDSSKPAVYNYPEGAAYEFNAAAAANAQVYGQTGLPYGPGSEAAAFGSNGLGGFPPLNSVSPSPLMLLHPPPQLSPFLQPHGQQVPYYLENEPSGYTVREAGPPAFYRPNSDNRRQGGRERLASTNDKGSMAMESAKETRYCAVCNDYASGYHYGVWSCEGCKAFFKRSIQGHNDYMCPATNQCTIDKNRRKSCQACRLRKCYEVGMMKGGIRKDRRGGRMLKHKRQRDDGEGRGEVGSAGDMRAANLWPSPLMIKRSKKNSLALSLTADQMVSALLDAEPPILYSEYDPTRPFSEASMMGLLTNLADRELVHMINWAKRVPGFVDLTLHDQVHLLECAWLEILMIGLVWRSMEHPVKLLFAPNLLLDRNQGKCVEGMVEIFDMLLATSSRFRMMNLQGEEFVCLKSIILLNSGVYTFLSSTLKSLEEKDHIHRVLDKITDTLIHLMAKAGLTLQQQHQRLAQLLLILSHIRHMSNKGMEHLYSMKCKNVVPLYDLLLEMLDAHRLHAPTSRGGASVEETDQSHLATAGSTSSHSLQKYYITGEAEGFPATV


Key:
[1] = target: T1, ER; assay: ER-mediated transactivation reporter assay (ERE-CAT / ERE-Luc); format: cell-based; settings: for Activity ER (effect of regulator on transcription activity): Table 5
Description: Transfections and chloramphenicol acetyltransferase (CAT) assays were performed as described previously. Yeh, & Chang, Proc. Natl. Acad. Sci. 93, 5517-5521 (1996). Briefly, 4×10^5 cells were plated in 60-mm dishes and cultured for 24 h, and then the medium was changed to phenol red free DMEM with 5% charcoal-stripped FCS 2 h before transfection. The cells were co-transfected with TR2 and/or ER expression plasmids with 2 μg of TR2-TK-CAT reporter or 1 μg of ERE-CAT reporter gene plasmid, as indicated in the Figures, by using the calcium phosphate precipitation method. A β-gal actosidase expression plasmid, pCMV-β-gal, was transfected in all transfections as an internal control for normalizing transfection efficiency. The total amount of DNA was adjusted up to 10.5 μg with parent vectors, pSG5 or pCMV in each transcriptional activity assay. […] The cells were then harvested and whole cell extracts were used for CAT assay. The CAT activity was quantitated by Phosphorlmager (Molecular Dynamics). Data are presented as means±S.D. of at least three independent experiments.
Transfections and chloramphenicol acetyltransferase (CAT) assays were performed using the calcium phosphate precipitation method, as described previously (Yeh, S. et al. (2000) Proc. Natl. Acad. Sci. USA 97, 11256-61). CAT reporter plasmids containing one copy of estrogen response element (ERE-CAT), or mouse mammary tumor virus (MMTV-CAT) were used as indicated. Also, a β-galactosidase expression plasmid, pCMV-β-gal, was used for transfection efficiency.
H1299 and MCF-7 cells were maintained in Dulbecco's modified eagle medium (DMEM) containing penicillin (25 units/ml), streptomycin (25 μg/ml), and 10% fetal calf serum (FBS). Transfections were performed using the calcium phosphate precipitation method, as described previously (Lee, Y. et al. (1999) Proc. Natl. Acad Sci. USA. 96(26) 14724-9). Briefly, 3×10^5 cells were plated on 60-mm dishes for 24 h before transfection, and the medium was changed to DMEM with 10% charcoal/dextran-stripped FBS. H1299 cells were transfected with an ER expression plasmid (pSG5-ER or pCMV-mERβ, ERE-chloramphenicol acetyltransferase (ERE-CAT) or pSG5-PR and MMTV-Luciferase reporter plasmid, and a TR4 expression plasmid (pCMV-TR4) ERZ-CAT Bradshaw et al., (1991) J. Biol. Chem. 266:16684-16690 and pCMVB-gal and PSV-RL from promega, all of which are herein incorporated by reference at least for material related to plasmids and assays, including sequence.) MCF-7 cells were only transfected with ERE-CAT reporter and TR4 expression plasmid. For all transfection experiments, pCMVβ-gal (CAT assay) or pSV-40 RL (Luciferase assay) was used as an internal control for transfection efficiency and the total amount of transfected DNA was adjusted to 12 μg with pCMV. […] After another 24 h, the cells were harvested for CAT assay or Luciferase assay. The CAT activity was visualized by Phosphorlmager (Molecular Dynamics) and quantitated by IMAGEQUANT software (Molecular Dynamics). The luciferase activity was determined by the Luminometer (Turner Designs).

[2] = target: T2, ERβ (Mus musculus, UniProt O08537); assay: ERβ-mediated transactivation (ERE reporter); format: cell-based
T2 construct: expressed in transfected cells; host or cells: HEK293 (TR2 experiment), H1299 (TR4 experiment)
T2 sequence (O08537 whole entry): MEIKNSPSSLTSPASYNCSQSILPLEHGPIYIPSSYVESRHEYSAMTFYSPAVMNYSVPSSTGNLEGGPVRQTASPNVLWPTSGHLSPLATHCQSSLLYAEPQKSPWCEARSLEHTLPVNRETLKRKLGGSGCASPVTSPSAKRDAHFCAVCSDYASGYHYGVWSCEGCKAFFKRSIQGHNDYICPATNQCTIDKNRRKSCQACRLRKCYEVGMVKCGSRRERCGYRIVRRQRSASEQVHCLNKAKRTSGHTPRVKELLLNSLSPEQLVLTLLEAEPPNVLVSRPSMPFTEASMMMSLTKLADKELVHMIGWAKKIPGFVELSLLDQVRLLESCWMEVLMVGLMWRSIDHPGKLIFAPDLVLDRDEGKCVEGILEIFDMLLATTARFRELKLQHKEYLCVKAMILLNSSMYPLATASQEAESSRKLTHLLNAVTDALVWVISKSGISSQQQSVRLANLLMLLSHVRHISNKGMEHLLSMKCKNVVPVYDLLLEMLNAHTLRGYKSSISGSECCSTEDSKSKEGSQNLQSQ
Description: (A) TR2 repression of ER-mediated ERE-tk-CAT reporter genes in PC-3, H1299, MCF7, and T47D cells. Cells in 60-mm dishes were co-transfected with […] of ERE-CAT, pSG5-ER, and/or pCMV-TR2 by calcium phosphate precipitation methods. 1 mg of b-galactosidase expression plasmid, pCMV-b-gal, was used as an internal control for transfection efficiency. CAT activity is presented relative to the response to ethanol, which is set as one. (B) MCF7-pBIG and MCF7-TR2 cells were stably transfected with doxycycline-inducible pBIG2i and pBIG2I-FLAG-TR2 plasmids, respectively. Cells were transfected with […] of pCMV-b-gal and, after 16 hr, were treated with or without […] doxycycline. […] FLAG-TR2 induction was monitored by Western blotting using anti-FLAG antibody (M2), shown in the upper panel. […] Relative mRNA expression amounts were normalized by 28S expression and quantitated by ImageQuant V.1.2 (Molecular Dynamics). […] Luciferase activity was analyzed following manufacturer's instructions (Promega). […]
H1299 and MCF-7 cells were maintained in Dulbecco's modified eagle medium (DMEM) containing penicillin (25 units/ml), streptomycin (25 μg/ml), and 10% fetal calf serum (FBS). […] The CAT activity was visualized by Phosphorlmager (Molecular Dynamics) and quantitated by IMAGEQUANT software (Molecular Dynamics). The luciferase activity was determined by the Luminometer (Turner Designs).

[3] = H1299 cells, 10 nM E2, increasing TR4 expression plasmid

Effect on TR2-mediated suppression of ER transcription (ERE-CAT) ([1]; MCF7-TR2 cells, E2 and doxycycline)	ER transcription (ERE-luciferase) ([1]; MCF7 cells, increasing amounts of plasmid)	ERE-CAT activity ([1]; MCF-7-TR4 cells, 2 μg/ml Dox-induced TR4)	Endogenous ER-mediated CAT reporter activity ([1]; MCF-7 cells, increasing TR4)	Molecule	E2-induced ERE-CAT activity, ERβ [2, 3]	E2-induced ERE-CAT activity, ERα [1, 3]	ER transactivation (ERE-CAT) ([1]; H1299 cells, ERα, 10 nM E2, full-length or C-terminal deletion TR4)	Activity ER (effect of regulator on transcription activity) [1]	ERβ-mediated transcription (ERE-Luc) ([2]; HEK293 cells, TR2)	E2-induced ER transcription (ERE-CAT) ([1]; MCF7-TR2 cells, doxycycline-induced TR2)	ERE-CAT activity, transfected ER ([1]; PC-3 and H1299 cells, 10 nM E2, increasing TR2 expression vector)	Endogenous ER-mediated ERE-CAT activity ([1]; T47D cells, increasing TR2 expression plasmid)	ER-mediated transcription (ERE-CAT or ERE-luciferase) ([1]; exogenous ER (PC-3, H1299) or endogenous ER (MCF7, T47D), Example 2)
reversing this suppression	enhance ER transcription			ER-#6: interaction blocker, ER fragment aa 312-340, as HA-tagged peptide, expression plasmid or cleaved peptide (ADQMVSALLDAEPPILYSEYDPTRPFSEA; also: HA tag (position not given here); UniProt P03372 312-340, looked up, fragment)									
		repress	gradual decrease	TR4: human testicular orphan nuclear receptor 4, SEQ ID NO:16; expressed from plasmid or in vitro translated (protein) MTSPSPRIQIISTDSAVASPQRIQGSEPASGPLSVFTSLNKEKIVTDQQTGQKIQIVTAVDASGSPKQQFILTSPDGAGTGKVILASPETSSAKQLIFTTSDNLVPGRIQIVTDSASVERLLGKTDVQRPQVVEYCVVCGDKASGRHYGAVSCEGCKGFFKRSVRKNLTYSCRSSQDCIINKHHRNRCQFCRLKKCLEMGMKMESVQSERKPFDVQREKPSNCAASTEKIYIRKDLRSPLIATPTFVADKDGARQTGLLDPGMLVNIQQPLIREDGTVLLATDSKAETSQGALGTLANVVTSLANLSESLNNGDTSEIQPEDQSASEITRAFDTLAKALNTTDSSSSPSLADGIDTSGGGSIHVISRDQSTPIIEVEGPLLSDTHVTFKLTMPSPMPEYLNVHYICESASRLLFLSMHRARSIPAFQGLGQDCNTSLVRACWNELFTLGLAQCAQVMSLSTILAAIVNHLQNSIQEDKLSGDRIKQVMEHIWKLQEFCNSMANWDIDGYEYAYLKAIVLFSPDHPGLTSTSQIEKFQEKAQMELQDYVQKTYSEDTYRLARILVRLPALRLMSSNITEELFFTGLIGNVSIDSIIPYILKMETAEYNGQITGVSL	suppression of the E2-induced CAT activity in a dose-dependent manner	suppression of the E2-induced CAT activity in a dose-dependent manner	repress ER transactivation in a dose-dependent manner	Down					
				TR2: human testicular orphan nuclear receptor 2, 603 amino acids (protein, UniProt P13056 1-603, looked up, full-length, human testicular orphan nuclear receptor 2, 603 amino acids) MATIEEIAHQIIEQQMGEIVTEQQTGQKIQIVTALDHNTQGKQFILTNHDGSTPSKVILARQDSTPGKVFLTTPDAAGVNQLFFTTPDLSAQHLQLLTDNSPDQGPNKVFDLCVVCGDKASGRHYGAVTCEGCKGFFKRSIRKNLVYSCRGSKDCIINKHHRNRCQYCRLQRCIAFGMKQDSVQCERKPIEVSREKSSNCAASTEKIYIRKDLRSPLTATPTFVTDSESTRSTGLLDSGMFMNIHPSGVKTESAVLMTSDKAESCQGDLSTLANVVTSLANLGKTKDLSQNSNEMSMIESLSNDDTSLCEFQEMQTNGDVSRAFDTLAKALNPGESTACQSSVAGMEGSVHLITGDSSINYTEKEGPLLSDSHVAFRLTMPSPMPEYLNVHYIGESASRLLFLSMHWALSIPSFQALGQENSISLVKAYWNELFTLGLAQCWQVMNVATILATFVNCLHNSLQQDKMSTERRKLLMEHIFKLQEFCNSMVKLCIDGYEYAYLKAIVLFSPDHPSLENMEQIEKFQEKAYVEFQDYITKTYPDDTYRLSRLLLRLPALRLMNATITEELFFKGLIGNIRIDSVIPHILKMEPADYNSQIIGHSI				Down	suppress	significantly repressed	suppression of ER transactivation in a dose-dependent manner	repress	consistently suppressed
